Source: patent US20210003577A1 (MAYO FOUNDATION FOR MEDICAL EDUCATION AND RESEARCH, published 2021)

Legend:
[1] = target: T1, endogenous TET1 in C4-2CON and C4-2ENZ-R cells (human, UniProt Q8NFU7 1-2136, limits assumed); test: co-immunoprecipitation of endogenous proteins, C4-2CON and C4-2ENZ-R cells
T1 construct: Endogenous protein in cell lysate for co-IP

[2] = target: T2, endogenous TET3 in C4-2CON and C4-2ENZ-R cells (human, UniProt O43151 1-1795, limits assumed); test: as above
T2 construct: Endogenous protein in cell lysate for co-IP
T2 sequence (O43151 whole entry): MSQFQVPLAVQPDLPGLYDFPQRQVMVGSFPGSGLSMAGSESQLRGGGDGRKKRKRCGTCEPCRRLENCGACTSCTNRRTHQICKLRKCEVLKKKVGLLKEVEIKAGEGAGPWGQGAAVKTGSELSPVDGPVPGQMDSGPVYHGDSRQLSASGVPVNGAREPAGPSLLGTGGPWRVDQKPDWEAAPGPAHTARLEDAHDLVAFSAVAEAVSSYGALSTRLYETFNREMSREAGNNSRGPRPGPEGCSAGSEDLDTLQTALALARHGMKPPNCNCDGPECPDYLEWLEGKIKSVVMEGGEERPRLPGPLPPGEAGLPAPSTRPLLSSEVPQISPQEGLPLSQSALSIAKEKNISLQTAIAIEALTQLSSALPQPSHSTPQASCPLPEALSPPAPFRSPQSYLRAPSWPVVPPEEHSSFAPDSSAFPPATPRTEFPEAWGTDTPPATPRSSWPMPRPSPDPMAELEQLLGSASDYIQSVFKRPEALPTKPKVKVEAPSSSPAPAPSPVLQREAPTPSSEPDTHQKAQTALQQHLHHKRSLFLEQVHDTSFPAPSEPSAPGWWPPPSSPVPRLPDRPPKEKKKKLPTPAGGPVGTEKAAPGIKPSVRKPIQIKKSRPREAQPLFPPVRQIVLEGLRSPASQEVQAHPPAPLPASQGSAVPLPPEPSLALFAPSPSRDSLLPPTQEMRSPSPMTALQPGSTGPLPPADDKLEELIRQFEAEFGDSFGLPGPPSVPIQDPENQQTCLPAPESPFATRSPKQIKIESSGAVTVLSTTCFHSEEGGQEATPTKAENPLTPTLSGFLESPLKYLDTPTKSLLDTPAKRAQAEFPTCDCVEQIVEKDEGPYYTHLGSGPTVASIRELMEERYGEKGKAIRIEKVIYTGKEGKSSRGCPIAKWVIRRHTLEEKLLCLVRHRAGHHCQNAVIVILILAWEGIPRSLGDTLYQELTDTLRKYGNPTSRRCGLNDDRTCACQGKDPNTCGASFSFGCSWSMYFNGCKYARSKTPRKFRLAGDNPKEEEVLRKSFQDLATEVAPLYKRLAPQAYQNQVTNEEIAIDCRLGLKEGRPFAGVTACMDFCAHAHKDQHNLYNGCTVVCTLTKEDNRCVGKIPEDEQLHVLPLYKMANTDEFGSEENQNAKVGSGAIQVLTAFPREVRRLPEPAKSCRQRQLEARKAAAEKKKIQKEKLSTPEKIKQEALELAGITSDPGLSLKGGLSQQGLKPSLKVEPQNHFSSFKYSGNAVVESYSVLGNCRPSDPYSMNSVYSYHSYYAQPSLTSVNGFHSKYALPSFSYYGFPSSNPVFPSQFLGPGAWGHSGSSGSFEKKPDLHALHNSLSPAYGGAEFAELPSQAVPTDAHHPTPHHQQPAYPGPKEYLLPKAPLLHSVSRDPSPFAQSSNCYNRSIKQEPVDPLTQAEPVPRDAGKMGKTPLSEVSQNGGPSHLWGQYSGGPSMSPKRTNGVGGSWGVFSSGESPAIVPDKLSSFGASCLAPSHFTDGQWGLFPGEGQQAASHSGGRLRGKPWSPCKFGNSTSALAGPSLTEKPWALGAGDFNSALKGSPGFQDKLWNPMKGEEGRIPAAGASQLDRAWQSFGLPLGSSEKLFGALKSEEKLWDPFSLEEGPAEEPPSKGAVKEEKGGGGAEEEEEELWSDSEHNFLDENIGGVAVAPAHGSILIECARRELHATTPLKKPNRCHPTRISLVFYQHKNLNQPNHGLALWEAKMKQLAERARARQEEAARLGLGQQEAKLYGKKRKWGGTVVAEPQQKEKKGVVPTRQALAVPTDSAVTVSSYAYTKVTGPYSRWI

T1 sequence (Q8NFU7 whole entry): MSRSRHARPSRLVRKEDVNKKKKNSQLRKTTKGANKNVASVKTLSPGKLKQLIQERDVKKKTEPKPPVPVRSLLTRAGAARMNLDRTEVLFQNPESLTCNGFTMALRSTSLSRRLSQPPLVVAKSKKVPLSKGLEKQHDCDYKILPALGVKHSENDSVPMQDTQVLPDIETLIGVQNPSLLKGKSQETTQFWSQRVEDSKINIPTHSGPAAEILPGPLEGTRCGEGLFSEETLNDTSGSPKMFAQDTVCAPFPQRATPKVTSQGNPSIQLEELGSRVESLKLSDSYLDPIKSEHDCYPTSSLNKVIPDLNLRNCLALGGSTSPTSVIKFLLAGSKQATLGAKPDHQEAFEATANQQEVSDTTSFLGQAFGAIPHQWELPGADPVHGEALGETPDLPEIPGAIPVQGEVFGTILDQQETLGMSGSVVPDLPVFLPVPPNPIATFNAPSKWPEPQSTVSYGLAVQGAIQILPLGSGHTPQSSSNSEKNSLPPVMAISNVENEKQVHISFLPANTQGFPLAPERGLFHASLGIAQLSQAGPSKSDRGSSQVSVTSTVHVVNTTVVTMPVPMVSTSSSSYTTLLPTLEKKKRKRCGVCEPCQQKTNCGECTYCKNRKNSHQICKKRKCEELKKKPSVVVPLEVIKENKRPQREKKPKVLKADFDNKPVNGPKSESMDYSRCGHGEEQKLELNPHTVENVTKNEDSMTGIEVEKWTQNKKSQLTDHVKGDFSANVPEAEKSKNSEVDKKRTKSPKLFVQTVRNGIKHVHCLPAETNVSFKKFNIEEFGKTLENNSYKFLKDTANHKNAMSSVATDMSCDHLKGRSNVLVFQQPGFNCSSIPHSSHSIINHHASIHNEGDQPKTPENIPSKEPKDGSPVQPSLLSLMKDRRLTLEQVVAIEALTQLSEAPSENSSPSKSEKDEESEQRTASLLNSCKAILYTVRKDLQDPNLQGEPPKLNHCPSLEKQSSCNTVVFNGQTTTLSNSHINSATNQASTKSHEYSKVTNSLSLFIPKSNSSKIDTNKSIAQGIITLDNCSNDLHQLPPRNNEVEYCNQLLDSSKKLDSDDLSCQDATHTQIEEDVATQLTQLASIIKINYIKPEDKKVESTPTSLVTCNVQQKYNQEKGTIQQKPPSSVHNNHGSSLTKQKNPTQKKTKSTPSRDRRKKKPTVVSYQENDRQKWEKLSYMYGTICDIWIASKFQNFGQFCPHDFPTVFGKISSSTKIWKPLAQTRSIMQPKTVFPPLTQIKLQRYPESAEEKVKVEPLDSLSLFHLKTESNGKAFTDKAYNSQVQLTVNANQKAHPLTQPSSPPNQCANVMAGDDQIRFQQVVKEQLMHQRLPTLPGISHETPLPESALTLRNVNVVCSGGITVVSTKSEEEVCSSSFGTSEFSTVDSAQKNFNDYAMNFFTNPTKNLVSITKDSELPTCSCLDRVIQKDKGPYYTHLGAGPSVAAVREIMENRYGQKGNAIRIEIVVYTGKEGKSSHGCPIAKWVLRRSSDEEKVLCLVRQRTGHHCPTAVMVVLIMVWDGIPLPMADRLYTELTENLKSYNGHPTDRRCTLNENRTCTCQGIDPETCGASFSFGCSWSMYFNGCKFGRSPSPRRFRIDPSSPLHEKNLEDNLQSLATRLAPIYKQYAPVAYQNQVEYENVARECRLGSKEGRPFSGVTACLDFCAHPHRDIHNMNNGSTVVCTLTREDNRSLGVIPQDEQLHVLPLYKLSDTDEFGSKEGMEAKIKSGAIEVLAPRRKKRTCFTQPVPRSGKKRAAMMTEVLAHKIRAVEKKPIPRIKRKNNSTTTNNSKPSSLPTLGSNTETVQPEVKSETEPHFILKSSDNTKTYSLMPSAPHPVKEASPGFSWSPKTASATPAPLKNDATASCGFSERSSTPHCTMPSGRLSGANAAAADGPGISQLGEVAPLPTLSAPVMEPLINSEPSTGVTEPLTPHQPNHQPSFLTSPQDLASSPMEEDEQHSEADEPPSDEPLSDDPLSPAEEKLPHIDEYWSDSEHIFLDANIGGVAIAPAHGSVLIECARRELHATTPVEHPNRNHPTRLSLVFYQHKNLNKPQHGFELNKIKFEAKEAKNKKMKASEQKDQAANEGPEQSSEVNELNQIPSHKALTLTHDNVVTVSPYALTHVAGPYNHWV

B1: endogenous AR in C4-2CON and C4-2ENZ-R cells (receptor, human, UniProt P10275 1-920, looked up)
chain: MEVQLGLGRVYPRPPSKTYRGAFQNLFQSVREVIQNPGPRHPEAASAAPPGASLLLLQQQQQQQQQQQQQQQQQQQQQQQETSPRQQQQQQGEDGSPQAHRRGPTGYLVLDEEQQPSQPQSALECHPERGCVPEPGAAVAASKGLPQQLPAPPDEDDSAAPSTLSLLGPTFPGLSSCSADLKDILSEASTMQLLQQQQQEAVSEGSSSGRAREASGAPTSSKDNYLGGTSTISDNAKELCKAVSVSMGLGVEALEHLSPGEQLRGDCMYAPLLGVPPAVRPTPCAPLAECKGSLLDDSAGKSTEDTAEYSPFKGGYTKGLEGESLGCSGSAAAGSSGTLELPSTLSLYKSGALDEAAAYQSRDYYNFPLALAGPPPPPPPPHPHARIKLENPLDYGSAWAAAAAQCRYGDLASLHGAGAAGPGSGSPSAAASSSWHTLFTAEEGQLYGPCGGGGGGGGGGGGGGGGGGGGGGGEAGAVAPYGYTRPPQGLAGQESDFTAPDVWYPGGMVSRVPYPSPTCVKSEMGPWMDSYSGPYGDMRLETARDHVLPIDYYFPPQKTCLICGDEASGCHYGALTCGSCKVFFKRAAEGKQKYLCASRNDCTIDKFRRKNCPSCRLRKCYEAGMTLGARKLKKLGNLKLQEEGEASSTTSPTEETTQKLTVSHIEGYECQPIFLNVLEAIEPGVVCAGHDNNQPDSFAALLSSLNELGERQLVHVVKWAKALPGFRNLHVDDQMAVIQYSWMGLMVFAMGWRSFTNVNSRMLYFAPDLVFNEYRMHKSRMYSQCVRMRHLSQEFGWLQITPQEFLCMKALLLFSIIPVDGLKNQKFFDELRMNYIKELDRIIACKRKNPTSCSRRFYQLTKLLDSVQPIARELHQFTFDLLIKSHMVSVDFPEMMAEIISVQVPKILSGKVKPIYFHTQ
notes: also called androgen receptor; ARFL
[1]
  binding result: no binding
[2]
  binding result: no binding
